From US20060100138

How the values were obtained:
[1] = test system: Synthetic human type I collagen
[2] = test system: Synthetic human type III collagen
Sequence of Synthetic human type III collagen (chain, as listed by the source): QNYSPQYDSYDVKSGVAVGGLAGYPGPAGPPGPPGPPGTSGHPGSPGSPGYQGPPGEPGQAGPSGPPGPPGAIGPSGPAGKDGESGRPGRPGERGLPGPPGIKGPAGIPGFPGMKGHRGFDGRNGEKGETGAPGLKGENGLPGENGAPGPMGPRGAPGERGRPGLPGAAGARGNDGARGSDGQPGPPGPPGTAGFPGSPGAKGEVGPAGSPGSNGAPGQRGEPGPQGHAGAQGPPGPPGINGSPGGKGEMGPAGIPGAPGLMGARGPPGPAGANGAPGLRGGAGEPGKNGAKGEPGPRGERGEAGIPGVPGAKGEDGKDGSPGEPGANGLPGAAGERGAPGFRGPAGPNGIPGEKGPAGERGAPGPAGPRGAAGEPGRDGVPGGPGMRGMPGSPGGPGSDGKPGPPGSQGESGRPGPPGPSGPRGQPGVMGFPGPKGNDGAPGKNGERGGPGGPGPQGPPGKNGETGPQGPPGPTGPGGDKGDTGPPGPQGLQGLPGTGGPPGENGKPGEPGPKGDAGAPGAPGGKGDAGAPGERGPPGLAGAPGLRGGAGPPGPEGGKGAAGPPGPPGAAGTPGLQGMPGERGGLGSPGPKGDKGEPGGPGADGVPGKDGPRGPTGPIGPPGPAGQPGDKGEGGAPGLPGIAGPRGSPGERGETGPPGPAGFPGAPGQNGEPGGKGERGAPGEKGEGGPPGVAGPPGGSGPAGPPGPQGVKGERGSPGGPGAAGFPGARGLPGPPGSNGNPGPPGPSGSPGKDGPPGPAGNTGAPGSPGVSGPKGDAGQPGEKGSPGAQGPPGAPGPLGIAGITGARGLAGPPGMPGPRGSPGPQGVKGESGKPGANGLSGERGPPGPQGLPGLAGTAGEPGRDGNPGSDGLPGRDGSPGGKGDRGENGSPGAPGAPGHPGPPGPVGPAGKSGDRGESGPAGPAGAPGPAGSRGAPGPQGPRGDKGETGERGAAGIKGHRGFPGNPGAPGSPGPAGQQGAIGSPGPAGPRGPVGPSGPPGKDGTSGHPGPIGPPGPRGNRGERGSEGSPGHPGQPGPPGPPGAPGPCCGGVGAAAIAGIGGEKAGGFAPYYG

Sequence of MMP-8 (collagenase 2, neutrophil collagenase) (chain, as listed by the source): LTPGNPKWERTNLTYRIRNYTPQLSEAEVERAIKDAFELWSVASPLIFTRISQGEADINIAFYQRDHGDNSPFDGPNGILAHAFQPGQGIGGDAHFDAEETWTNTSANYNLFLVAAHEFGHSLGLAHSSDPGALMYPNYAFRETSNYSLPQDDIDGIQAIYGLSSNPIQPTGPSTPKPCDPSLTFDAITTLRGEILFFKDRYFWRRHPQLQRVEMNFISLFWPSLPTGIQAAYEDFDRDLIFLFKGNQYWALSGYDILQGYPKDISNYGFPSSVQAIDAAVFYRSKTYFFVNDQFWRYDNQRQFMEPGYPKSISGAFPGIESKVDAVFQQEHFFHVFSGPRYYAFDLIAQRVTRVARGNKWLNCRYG
Sequence of Synthetic human type I collagen (chain, as listed by the source, chain 1 of 2): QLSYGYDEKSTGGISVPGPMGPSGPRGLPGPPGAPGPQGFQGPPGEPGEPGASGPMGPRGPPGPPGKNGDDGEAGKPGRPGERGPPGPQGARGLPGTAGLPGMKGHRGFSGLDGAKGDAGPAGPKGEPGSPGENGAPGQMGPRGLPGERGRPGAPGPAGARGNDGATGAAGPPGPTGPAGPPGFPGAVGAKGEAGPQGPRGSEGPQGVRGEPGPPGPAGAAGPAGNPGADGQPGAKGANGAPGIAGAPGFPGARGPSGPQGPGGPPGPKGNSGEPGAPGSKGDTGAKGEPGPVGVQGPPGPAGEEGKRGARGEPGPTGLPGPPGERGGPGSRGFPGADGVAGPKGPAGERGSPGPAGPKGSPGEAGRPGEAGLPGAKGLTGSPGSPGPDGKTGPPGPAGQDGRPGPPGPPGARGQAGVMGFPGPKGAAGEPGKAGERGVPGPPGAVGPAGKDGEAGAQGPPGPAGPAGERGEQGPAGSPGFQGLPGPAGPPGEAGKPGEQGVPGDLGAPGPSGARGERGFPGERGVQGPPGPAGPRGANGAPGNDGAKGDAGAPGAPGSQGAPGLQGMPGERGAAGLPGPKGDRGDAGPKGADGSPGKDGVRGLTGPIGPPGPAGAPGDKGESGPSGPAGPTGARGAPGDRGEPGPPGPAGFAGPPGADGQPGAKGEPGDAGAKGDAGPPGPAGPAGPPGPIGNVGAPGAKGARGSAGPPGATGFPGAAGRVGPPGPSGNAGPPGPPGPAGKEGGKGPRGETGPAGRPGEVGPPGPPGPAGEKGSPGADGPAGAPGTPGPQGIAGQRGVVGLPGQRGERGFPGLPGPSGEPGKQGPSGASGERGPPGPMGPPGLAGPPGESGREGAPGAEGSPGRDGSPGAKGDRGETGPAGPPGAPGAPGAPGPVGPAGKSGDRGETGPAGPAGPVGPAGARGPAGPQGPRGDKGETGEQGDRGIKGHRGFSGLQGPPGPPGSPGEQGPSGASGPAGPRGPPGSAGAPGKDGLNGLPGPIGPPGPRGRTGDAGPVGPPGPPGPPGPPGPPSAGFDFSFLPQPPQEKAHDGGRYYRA
Sequence of Synthetic human type I collagen (chain, as listed by the source, chain 2 of 2): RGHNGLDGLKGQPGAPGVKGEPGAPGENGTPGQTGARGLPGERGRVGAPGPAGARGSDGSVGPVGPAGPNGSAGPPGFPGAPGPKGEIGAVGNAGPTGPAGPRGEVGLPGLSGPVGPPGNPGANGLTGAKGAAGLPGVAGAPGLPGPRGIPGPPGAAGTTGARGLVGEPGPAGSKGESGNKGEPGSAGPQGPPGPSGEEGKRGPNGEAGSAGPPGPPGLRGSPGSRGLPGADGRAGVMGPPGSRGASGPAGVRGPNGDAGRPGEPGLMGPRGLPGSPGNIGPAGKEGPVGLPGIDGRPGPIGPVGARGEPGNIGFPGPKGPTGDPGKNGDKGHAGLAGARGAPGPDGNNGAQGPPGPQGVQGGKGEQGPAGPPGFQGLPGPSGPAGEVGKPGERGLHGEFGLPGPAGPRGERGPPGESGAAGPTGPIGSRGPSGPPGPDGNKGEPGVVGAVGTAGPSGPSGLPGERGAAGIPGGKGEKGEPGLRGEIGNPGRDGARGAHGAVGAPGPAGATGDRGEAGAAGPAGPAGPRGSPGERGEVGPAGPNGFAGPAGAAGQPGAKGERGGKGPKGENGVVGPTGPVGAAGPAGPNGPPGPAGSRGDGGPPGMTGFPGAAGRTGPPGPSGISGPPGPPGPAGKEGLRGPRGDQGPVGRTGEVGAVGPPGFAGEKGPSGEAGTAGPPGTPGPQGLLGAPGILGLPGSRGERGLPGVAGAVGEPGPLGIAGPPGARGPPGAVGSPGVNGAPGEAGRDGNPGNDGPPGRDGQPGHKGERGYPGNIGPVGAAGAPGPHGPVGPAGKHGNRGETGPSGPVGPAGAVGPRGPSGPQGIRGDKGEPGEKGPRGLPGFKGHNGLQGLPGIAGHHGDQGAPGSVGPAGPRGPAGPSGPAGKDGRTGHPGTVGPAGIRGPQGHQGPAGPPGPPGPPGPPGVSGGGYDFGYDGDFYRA

Substance: MMP-8 (collagenase 2, neutrophil collagenase)
- cleavage of collagen (SDS-PAGE after 1, 2 and 7 days at 37 C) [1]: both synthetic human type I and type III collagen were cleaved by MMP-1 (FIG. 1A) and MMP-8 (FIG. 1B)
- cleavage of collagen (SDS-PAGE after 1, 2 and 7 days at 37 C) [2]: both synthetic human type I and type III collagen were cleaved by MMP-1 (FIG. 1A) and MMP-8 (FIG. 1B)
- extent of degradation of collagen (SDS-PAGE) [2]: Synthetic human type III collagen was degraded by MMP-1 to a greater extent than by MMP-8
